# According to article PMC4139162:
# Target: KcsA potassium channel, L90C, chymotrypsin-truncated (UniProt P0A334)
# Experiment: crystal structure
substance,measurement,value
"KcsA potassium channel, L90C, chymotrypsin-truncated (from UniProt P0A334 1-160) (natural protein)",stoichiometry N,4
